Test results as given in patent publication US20200087373A1 (UNIVERSITY OF COPENHAGEN, published 2020).
Ends that are not written are not given here. * marks the point of attachment. C16 diacid = O=C(O)CCCCCCCCCCCCCCC(=O)*

T1: human GIP receptor (human, UniProt P48546 22-466)
T1 sequence (looked up): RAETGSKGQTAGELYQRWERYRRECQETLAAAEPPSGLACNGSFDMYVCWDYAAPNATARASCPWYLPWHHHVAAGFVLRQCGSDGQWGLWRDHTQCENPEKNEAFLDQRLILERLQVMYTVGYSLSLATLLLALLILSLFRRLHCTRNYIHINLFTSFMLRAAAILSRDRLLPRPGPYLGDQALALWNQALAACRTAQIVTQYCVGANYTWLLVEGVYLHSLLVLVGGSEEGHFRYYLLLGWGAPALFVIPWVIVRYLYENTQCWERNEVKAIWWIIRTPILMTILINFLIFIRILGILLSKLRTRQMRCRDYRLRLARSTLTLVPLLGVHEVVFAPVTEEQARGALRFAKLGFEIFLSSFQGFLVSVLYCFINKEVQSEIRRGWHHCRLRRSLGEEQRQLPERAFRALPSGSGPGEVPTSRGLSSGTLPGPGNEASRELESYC


Experiments:
human GIP receptor [1] = target: T1, human GIP receptor; assay: cell-based or functional assay
human GIP receptor [2] = target: T1, human GIP receptor; assay: 125I-hGIP(1-42) competition binding, COS-7 cells expressing human GIPR, with 2% HSA;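 note: nonspecific signal taken as radioligand bound to untransfected cells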
Experimental: (§1) After incubation, the cells were washed twice in ice-cold binding buffer (+/−2% HSA) and lysed using 200 mM NaOH with 1% SDS for 30 min. Nonspecific binding was determined as the binding of radioactive ligand to untransfected cells.

human GIP receptor [3] = target: T1, human GIP receptor; assay: 125I-hGIP(1-42) competition binding, COS-7 cells expressing human GIPR, without HSA;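 note: nonspecific binding defined as radioligand bound to cells lacking the transfected receptor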
Experimental: as §1

human GIP receptor [4] = target: T1, human GIP receptor; assay: ratio of Ki with 2% HSA to Ki without HSA, 125I-hGIP competition binding on hGIPR COS-7 cells;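 note: nonspecific binding was defined as radioligand signal on cells lacking the receptor transfection, with cell lysates measured after washes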
Experimental: as §1

Row | Binder | cAMP accumulation Fold (fold change from GIP(5-30)NH2) (human GIP receptor [1]) | cAMP accumulation IC50 (human GIP receptor [1]) | cAMP accumulation logIC50 (human GIP receptor [1]) | Ki (human GIP receptor [2]) | Ki (human GIP receptor [3]) | Fold (Ki + HSA / Ki - HSA) (human GIP receptor [4])
1 | TFISDYSIAMDKIHQQK(C16 diacid)FVNWLLAQK-NH2 (N-terminus assumed; SMILES CC[C@H](C)[C@H](NC(=O)[C@H](CO)NC(=O)[C@H](Cc1ccc(O)cc1)NC(=O)[C@H](CC(=O)O)NC(=O)[C@H](CO)NC(=O)[C@@H](NC(=O)[C@H](Cc1ccccc1)NC(=O)[C@@H](N)[C@@H](C)O)[C@@H](C)CC)C(=O)N[C@@H](C)C(=O)N[C@@H](CCSC)C(=O)N[C@@H](CC(=O)O)C(=O)N[C@@H](CCCCN)C(=O)N[C@H](C(=O)N[C@@H](Cc1c[nH]cn1)C(=O)N[C@@H](CCC(N)=O)C(=O)N[C@@H](CCC(N)=O)C(=O)N[C@@H](CCCCNC(=O)CCCCCCCCCCCCCCC(=O)O)C(=O)N[C@@H](Cc1ccccc1)C(=O)N[C@H](C(=O)N[C@@H](CC(N)=O)C(=O)N[C@@H](Cc1c[nH]c2ccccc12)C(=O)N[C@@H](CC(C)C)C(=O)N[C@@H](CC(C)C)C(=O)N[C@@H](C)C(=O)N[C@@H](CCC(N)=O)C(=O)N[C@@H](CCCCN)C(N)=O)C(C)C)[C@@H](C)CC) [AT181 [hGIP(5-30)NH2[D21K]-C16diacid/21]] | 0.5 fold | 0.0126 µM | -7.9 log(M) | 0.12 µM | 0.0333 µM | 3.6 fold
2 | TFISDYSIAMDKIHQQDFVNK(C16 diacid)LLAQK-NH2 (N-terminus assumed; SMILES CC[C@H](C)[C@H](NC(=O)[C@H](CO)NC(=O)[C@H](Cc1ccc(O)cc1)NC(=O)[C@H](CC(=O)O)NC(=O)[C@H](CO)NC(=O)[C@@H](NC(=O)[C@H](Cc1ccccc1)NC(=O)[C@@H](N)[C@@H](C)O)[C@@H](C)CC)C(=O)N[C@@H](C)C(=O)N[C@@H](CCSC)C(=O)N[C@@H](CC(=O)O)C(=O)N[C@@H](CCCCN)C(=O)N[C@H](C(=O)N[C@@H](Cc1c[nH]cn1)C(=O)N[C@@H](CCC(N)=O)C(=O)N[C@@H](CCC(N)=O)C(=O)N[C@@H](CC(=O)O)C(=O)N[C@@H](Cc1ccccc1)C(=O)N[C@H](C(=O)N[C@@H](CC(N)=O)C(=O)N[C@@H](CCCCNC(=O)CCCCCCCCCCCCCCC(=O)O)C(=O)N[C@@H](CC(C)C)C(=O)N[C@@H](CC(C)C)C(=O)N[C@@H](C)C(=O)N[C@@H](CCC(N)=O)C(=O)N[C@@H](CCCCN)C(N)=O)C(C)C)[C@@H](C)CC) [AT185 [hGIP(5-30)NH2[W25K]-C16diacid/25]] | 2.4 fold | 0.0661 µM | -7.18 log(M) | 0.337 µM | 0.0671 µM | 5 fold
3 | TFISDYSIAMDKIHQQDK(C16 diacid)VNWLLAQK-NH2 (N-terminus assumed; SMILES CC[C@H](C)[C@H](NC(=O)[C@H](CO)NC(=O)[C@H](Cc1ccc(O)cc1)NC(=O)[C@H](CC(=O)O)NC(=O)[C@H](CO)NC(=O)[C@@H](NC(=O)[C@H](Cc1ccccc1)NC(=O)[C@@H](N)[C@@H](C)O)[C@@H](C)CC)C(=O)N[C@@H](C)C(=O)N[C@@H](CCSC)C(=O)N[C@@H](CC(=O)O)C(=O)N[C@@H](CCCCN)C(=O)N[C@H](C(=O)N[C@@H](Cc1c[nH]cn1)C(=O)N[C@@H](CCC(N)=O)C(=O)N[C@@H](CCC(N)=O)C(=O)N[C@@H](CC(=O)O)C(=O)N[C@@H](CCCCNC(=O)CCCCCCCCCCCCCCC(=O)O)C(=O)N[C@H](C(=O)N[C@@H](CC(N)=O)C(=O)N[C@@H](Cc1c[nH]c2ccccc12)C(=O)N[C@@H](CC(C)C)C(=O)N[C@@H](CC(C)C)C(=O)N[C@@H](C)C(=O)N[C@@H](CCC(N)=O)C(=O)N[C@@H](CCCCN)C(N)=O)C(C)C)[C@@H](C)CC) [AT182 [hGIP(5-30)NH2[F22K]-C16diacid/22]] | 21.9 fold | 0.603 µM | -6.22 log(M) | 1.19 µM | 0.841 µM | 1.4 fold
4 | TFISDYSIAMDKIHQQDFVNWLK(C16 diacid)AQK-NH2 (N-terminus assumed; SMILES CC[C@H](C)[C@H](NC(=O)[C@H](CO)NC(=O)[C@H](Cc1ccc(O)cc1)NC(=O)[C@H](CC(=O)O)NC(=O)[C@H](CO)NC(=O)[C@@H](NC(=O)[C@H](Cc1ccccc1)NC(=O)[C@@H](N)[C@@H](C)O)[C@@H](C)CC)C(=O)N[C@@H](C)C(=O)N[C@@H](CCSC)C(=O)N[C@@H](CC(=O)O)C(=O)N[C@@H](CCCCN)C(=O)N[C@H](C(=O)N[C@@H](Cc1c[nH]cn1)C(=O)N[C@@H](CCC(N)=O)C(=O)N[C@@H](CCC(N)=O)C(=O)N[C@@H](CC(=O)O)C(=O)N[C@@H](Cc1ccccc1)C(=O)N[C@H](C(=O)N[C@@H](CC(N)=O)C(=O)N[C@@H](Cc1c[nH]c2ccccc12)C(=O)N[C@@H](CC(C)C)C(=O)N[C@@H](CCCCNC(=O)CCCCCCCCCCCCCCC(=O)O)C(=O)N[C@@H](C)C(=O)N[C@@H](CCC(N)=O)C(=O)N[C@@H](CCCCN)C(N)=O)C(C)C)[C@@H](C)CC) [AT187 [hGIP(5-30)NH2[L27K]-C16diacid/27]] | 67.6 fold | 1.86 µM | -5.73 log(M) | 3300 µM | 182 µM | 18.2 fold
5 | TFISDYSIAMDKIHQQDFVNWK(C16 diacid)LAQK-NH2 (N-terminus assumed; SMILES CC[C@H](C)[C@H](NC(=O)[C@H](CO)NC(=O)[C@H](Cc1ccc(O)cc1)NC(=O)[C@H](CC(=O)O)NC(=O)[C@H](CO)NC(=O)[C@@H](NC(=O)[C@H](Cc1ccccc1)NC(=O)[C@@H](N)[C@@H](C)O)[C@@H](C)CC)C(=O)N[C@@H](C)C(=O)N[C@@H](CCSC)C(=O)N[C@@H](CC(=O)O)C(=O)N[C@@H](CCCCN)C(=O)N[C@H](C(=O)N[C@@H](Cc1c[nH]cn1)C(=O)N[C@@H](CCC(N)=O)C(=O)N[C@@H](CCC(N)=O)C(=O)N[C@@H](CC(=O)O)C(=O)N[C@@H](Cc1ccccc1)C(=O)N[C@H](C(=O)N[C@@H](CC(N)=O)C(=O)N[C@@H](Cc1c[nH]c2ccccc12)C(=O)N[C@@H](CCCCNC(=O)CCCCCCCCCCCCCCC(=O)O)C(=O)N[C@@H](CC(C)C)C(=O)N[C@@H](C)C(=O)N[C@@H](CCC(N)=O)C(=O)N[C@@H](CCCCN)C(N)=O)C(C)C)[C@@H](C)CC) [AT186 [hGIP(5-30)NH2[L26K]-C16diacid/26]] | 2.6 fold | 0.0708 µM | -7.15 log(M) | 0.83 µM | 0.105 µM | 7.9 fold
6 | TFISDYSIAMDKIHQQDFK(C16 diacid)NWLLAQK-NH2 (N-terminus assumed; SMILES CC[C@H](C)[C@H](NC(=O)[C@H](CO)NC(=O)[C@H](Cc1ccc(O)cc1)NC(=O)[C@H](CC(=O)O)NC(=O)[C@H](CO)NC(=O)[C@@H](NC(=O)[C@H](Cc1ccccc1)NC(=O)[C@@H](N)[C@@H](C)O)[C@@H](C)CC)C(=O)N[C@@H](C)C(=O)N[C@@H](CCSC)C(=O)N[C@@H](CC(=O)O)C(=O)N[C@@H](CCCCN)C(=O)N[C@H](C(=O)N[C@@H](Cc1c[nH]cn1)C(=O)N[C@@H](CCC(N)=O)C(=O)N[C@@H](CCC(N)=O)C(=O)N[C@@H](CC(=O)O)C(=O)N[C@@H](Cc1ccccc1)C(=O)N[C@@H](CCCCNC(=O)CCCCCCCCCCCCCCC(=O)O)C(=O)N[C@@H](CC(N)=O)C(=O)N[C@@H](Cc1c[nH]c2ccccc12)C(=O)N[C@@H](CC(C)C)C(=O)N[C@@H](CC(C)C)C(=O)N[C@@H](C)C(=O)N[C@@H](CCC(N)=O)C(=O)N[C@@H](CCCCN)C(N)=O)[C@@H](C)CC) [AT183 [hGIP(5-30)NH2[V23K]-C16diacid/23]] | 55 fold | 1.51 µM | -5.82 log(M) | 23.3 µM | 5.35 µM | 4.4 fold
7 | TFISDYSIAMDKIHQQDFVK(C16 diacid)WLLAQK-NH2 (N-terminus assumed; SMILES CC[C@H](C)[C@H](NC(=O)[C@H](CO)NC(=O)[C@H](Cc1ccc(O)cc1)NC(=O)[C@H](CC(=O)O)NC(=O)[C@H](CO)NC(=O)[C@@H](NC(=O)[C@H](Cc1ccccc1)NC(=O)[C@@H](N)[C@@H](C)O)[C@@H](C)CC)C(=O)N[C@@H](C)C(=O)N[C@@H](CCSC)C(=O)N[C@@H](CC(=O)O)C(=O)N[C@@H](CCCCN)C(=O)N[C@H](C(=O)N[C@@H](Cc1c[nH]cn1)C(=O)N[C@@H](CCC(N)=O)C(=O)N[C@@H](CCC(N)=O)C(=O)N[C@@H](CC(=O)O)C(=O)N[C@@H](Cc1ccccc1)C(=O)N[C@H](C(=O)N[C@@H](CCCCNC(=O)CCCCCCCCCCCCCCC(=O)O)C(=O)N[C@@H](Cc1c[nH]c2ccccc12)C(=O)N[C@@H](CC(C)C)C(=O)N[C@@H](CC(C)C)C(=O)N[C@@H](C)C(=O)N[C@@H](CCC(N)=O)C(=O)N[C@@H](CCCCN)C(N)=O)C(C)C)[C@@H](C)CC) [AT184 [hGIP(5-30)NH2[N24K]-C16diacid/24]] | 3.9 fold | 0.107 µM | -6.97 log(M) | 0.871 µM | 0.224 µM | 3.9 fold
